First the molecules themselves.
B1: Azoarcus group I ribozyme (parent)
chain: GUGCCUUGCGCCGGGAAACCACGCAAGGGAUGGUGUCAAAUUCGGCGAAACCUAAGCGCCCGCCCGGGCGUAUGGCAACGCCGAGCCAAGCUUCGGCGCCUGCGCCGAUGAAGGUGUAGAGACUAGACGGCACCCACCUAAGGCAAACGCUAUGGUGAAGGCAUAGUCCAGGGAGUGGCGAAAGUCACACAAACCGG

The variants in the data set derive from B1. The data set is described as follows: reverse-splicing fitness (ratio to wild type); higher = more active; in vitro selection; Mg2+ level not given. In a few lines: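 An in vitro group I ribozyme library with randomized positions was T7-transcribed and gel-purified. In triplicate, 10 pmol RNA in EPPS pH 7.5 was reacted with 50 pmoles of a 30-nt RNA substrate for 1 h at 37 °C across several added MgCl2 levels (1–48 mM), then stopped with EDTA. Products were reverse transcribed from a substrate-complementary primer, PCR-amplified and sequenced (HiSeq 4000). Fitness is a variant's read proportion after selection over that before, normalised to wild type.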
C82U A111G A120G C150G C169U: the reverse-splicing fitness was 0.00822.
On to C82U A111G A120U A145G C150G U176A, for which the reverse-splicing fitness is 0.00494.
As to C82U A111G A120U A145G C150G U176C, the reverse-splicing fitness stood at 0.00719.
With C82U A111G A120U A145G C150G U176G, the reverse-splicing fitness was determined as 0.00276.
Then C82U A111G A120U C169A, with 0.00275; and C82U A111G A120U C169G, with 0.00416.
For C82U A111G A120U C169U, the reverse-splicing fitness was found to be 0.00493.
As to C82U A111G A120U A145U C150A, the reverse-splicing fitness came out at 0.00631.
In the case of C82U A111G A120U A145U C150G, the reverse-splicing fitness is 0.00775.
For the variant C82U A111G A120U A145U C150U, the reverse-splicing fitness turned out to be 0.0272.
For C82U A111G A145C C150U C169A U176A, the reverse-splicing fitness came out at 0.00923.
As to C82U A111G A145C C150U C169A U176C, the reverse-splicing fitness came to 0.00548.
Then C82U A111G A120U C150U C169G U176A, with 0.00733; and C82U A111G A120U C150U C169G U176C, with 0.00322.
With C82U A111G A120U C150U C169G U176G, the reverse-splicing fitness came out at 0.00216.
In the case of C82U A111G A120G C150G C169U U176A, the reverse-splicing fitness is 0.0121.
For the variant C82U A111G A120G C150G C169U U176G, the reverse-splicing fitness was found to be 0.00601.
Then C82U A111G A120G C150G C169U U176C, with 0.0124; and C82U A111G A120U A145C C150G C169G U176G, with 0.00197.
Then C82U A111G A120U A145C C150G C169G U176A, with 0.00255.
Then C82U A111G A120U A145C C150G C169G U176C, with 0.00251; and C82U A111G A145C C150A U176A, with 0.0156; and C82U A111G A145C C150A U176G, with 0.00788.
As to C82U A111G A145C C150A U176C, the reverse-splicing fitness came to 0.0142.
For C82U A111G A120U A145U C150A U176C, the reverse-splicing fitness was determined as 0.00416.
As to C82U A111G A120U A145U C150A U176A, the reverse-splicing fitness was 0.00427.
The result for C82U A111G A120U A145U C150A U176G reads 0.00212.
On to C82U A111G A120U A145C C169U U176G, for which the reverse-splicing fitness was determined as 0.00126.
On to C82U A111G A120U A145C C169U U176A, for which the reverse-splicing fitness amounted to 0.00232.
Regarding C82U A111G A120U A145C C169U U176C, the reverse-splicing fitness is 0.00209.
For C82U A111G A120U A145C C150G, the reverse-splicing fitness amounted to 0.00671.
C82U A111G A120U A145C C150U: the reverse-splicing fitness stood at 0.011.
Turning to C82U A111G A120U A145C C150A, the reverse-splicing fitness is 0.00504.
Turning to C82U A111G A120U A145C C169A U176C, the reverse-splicing fitness came to 0.00194.
Turning to C82U A111G A120U A145C C169A U176A, the reverse-splicing fitness turned out to be 0.00176.
In the case of C82U A111G A120U A145C C169A U176G, the reverse-splicing fitness was 0.00179.
The result for C82U A111G A120U C150A C169A U176G reads 0.00269.
On to C82U A111G A120U C150A C169A U176A, for which the reverse-splicing fitness was 0.00374.
As for C82U A111G A120U C150A C169A U176C, the reverse-splicing fitness was determined as 0.00313.
Turning to C82U A111G A120U A145C U176C, the reverse-splicing fitness came out at 0.0117.
C82U A111G A120U A145C U176G: the reverse-splicing fitness stood at 0.00339.
With C82U A111G A120U A145C U176A, the reverse-splicing fitness stood at 0.00851.
Turning to C82U A111G A120U A145U C150U C169G, the reverse-splicing fitness was found to be 0.00305.
Then C82U A111G A120U A145U C150U C169A, with 0.00252.
On to C82U A111G A120U A145U C150U C169U, for which the reverse-splicing fitness is 0.00372.
For C82U A111G A145C C150A C169U, the reverse-splicing fitness amounted to 0.00807.
The result for C82U A111G A145C C150A C169G reads 0.0066.
As to C82U A111G A145C C150A C169A, the reverse-splicing fitness came out at 0.0083.
Regarding C82U A111G A120U A145G C169A U176A, the reverse-splicing fitness stood at 0.00258.
As for C82U A111G A120U A145G C169A U176C, the reverse-splicing fitness came to 0.00292.
C82U A111G A120U A145G C169A U176G: the reverse-splicing fitness is 0.00159.
Regarding C82U A111G A120U A145U C150A C169U, the reverse-splicing fitness amounted to 0.00292.
Regarding C82U A111G A120U A145U C150A C169A, the reverse-splicing fitness was found to be 0.00228.
For C82U A111G A120U A145U C150A C169G, the reverse-splicing fitness was 0.00226.
As for C82U A111G A120U A145C C150U C169A, the reverse-splicing fitness is 0.00187.
Then C82U A111G A120U A145C C150U C169G, with 0.00245; and C82U A111G A120U A145C C150U C169U, with 0.00249.
On to C82U A111G A120U C169A U176G, for which the reverse-splicing fitness was found to be 0.00189.
As to C82U A111G A120U C169A U176A, the reverse-splicing fitness stood at 0.0024.
C82U A111G A120U C169A U176C: the reverse-splicing fitness is 0.00211.
For C82U A111G A120G C150U C169A U176G, the reverse-splicing fitness amounted to 0.00504.
On to C82U A111G A120G C150U C169A U176C, for which the reverse-splicing fitness is 0.0129.
As for C82U A111G A120G C150U C169A U176A, the reverse-splicing fitness came to 0.0143.
As for C82U A111G A120G C169A U176A, the reverse-splicing fitness turned out to be 0.0167.
C82U A111G A120G C169A U176G: the reverse-splicing fitness came out at 0.00398.
As for C82U A111G A120G C169A U176C, the reverse-splicing fitness was 0.023.
Turning to C82U A111G A120U A145C C150A C169G U176C, the reverse-splicing fitness came out at 0.00206.
On to C82U A111G A120U A145C C150A C169G U176A, for which the reverse-splicing fitness came out at 0.00205.
For the variant C82U A111G A120U A145C C150A C169G U176G, the reverse-splicing fitness was found to be 0.0017.
With C82U A111G A120U A145G C150G C169G U176C, the reverse-splicing fitness was 0.00401.
As for C82U A111G A120U A145G C150G C169G U176A, the reverse-splicing fitness was found to be 0.0073.
In the case of C82U A111G A120U A145G C150G C169G U176G, the reverse-splicing fitness is 0.00255.
With C82U A111G A120U C169U U176C, the reverse-splicing fitness was determined as 0.00442.
For the variant C82U A111G A120U C169U U176A, the reverse-splicing fitness was 0.00282.
The result for C82U A111G A120U C169U U176G reads 0.0017; that for C82U A111G A120G C150U, 0.0125; that for C82U A111G A120U C150G C169U, 0.004.
The result for C82U A111G A120U C150G C169G reads 0.00572; that for C82U A111G A120U C150G C169A, 0.00636; that for C82U A111G A145C C150A C169A U176G, 0.00539.
Consider C82U A111G A145C C150A C169A U176C, for which the reverse-splicing fitness worked out at 0.00627.
With C82U A111G A145C C150A C169A U176A, the reverse-splicing fitness is 0.0104.
Consider C82U A111G A120U A145G C150A, for which the reverse-splicing fitness stood at 0.01.
The result for C82U A111G A120U A145G C150U reads 0.0339.

For the origin of these results see the RNAGym collection of RNA variant scans (doi:10.1093/molbev/msab373).
